Patent US10851401B2, “Broth microdilution method for evaluating and determining minimal inhibitory concentration of antibacterial polypeptides” (priority 2016, dated 2020)

How the values were obtained:
[1] = test system: 223 contemporary clinical MSSA and MRSA strains; assay: First modified (stopgap) BMD method: polypropylene plates, MHBII with 1 mM DTT; type: cell-based, Staphylococcus aureus; conditions: MHBII supplemented with 1 mM DTT
Method: Two modified BMD methods were initially developed to test PlySs2/CF-301. In the first method, the major modifications were that polypropylene plates were used and MHBII was supplemented with 1 mM DTT. DTT (DL-Dithiothreitol) is a common molecular biology reagent used to keep enzymes in a reduced state. […] This procedure was a stop gap because of the use of polypropylene, a remaining disconnect from human blood MIC values, and problems with frozen panels.

25 S. aureus strains = assay: BMD MIC, validation of the horse serum/DTT method with varied sources, conditions and storage
S. aureus ATCC 700699 = assay: BMD MIC assay of a single strain in CA-MHB, human blood matrices and supplemented broth
Charge (pI) = type: physicochemical
S. aureus strains = assay: Standard BMD susceptibility testing, broth versus human blood/serum/plasma; type: cell-based
Excerpt: The supplementation with DTT serves to stabilize lysin polypeptide and enable the use of frozen micro broth dilution panels for MIC determination. DTT is a common reducing agent used to prevent the oxidation and inactivation of enzymes during storage or in the context of in vitro assays.

30 S. aureus strains = assay: Broth microdilution (BMD) MIC, identification of new testing conditions, panel of 30 strains
[2] = clinical grade, recombinantly produced in E. coli; cited from earlier work
[3] = oxidation and inactivation of active-site cysteine thiol in MHB
[4] = Bacterial inoculum 5 × 10^4 CFU/ml
[5] = Bacterial inoculum 5 × 10^5 CFU/ml (first line, r9)
[6] = Bacterial inoculum 5 × 10^5 CFU/ml (second line, r10)
[7] = Bacterial inoculum 5 × 10^6 CFU/ml
[8] = CAMHB source BBL BD (Powder), Freeze/Thaw no
[9] = CAMHB source BBL BD (Powder), Freeze/Thaw yes
[10] = CAMHB source BD (Liquid), Freeze/Thaw no
[11] = CAMHB source BD (Liquid), Freeze/Thaw yes
[12] = CAMHB source Sigma-Aldrich (Powder), Freeze/Thaw no
[13] = CAMHB source Sigma-Aldrich (Powder), Freeze/Thaw yes
[14] = CAMHB source Teknova (Liquid), Freeze/Thaw no
[15] = CAMHB source Teknova (Liquid), Freeze/Thaw yes
[16] = DTT source G-Biosciences (powder), Freeze/Thaw no
[17] = DTT source G-Biosciences (powder), Freeze/Thaw yes
[18] = DTT source Sigma (liquid), Freeze/Thaw no
[19] = DTT source Sigma (liquid), Freeze/Thaw yes
[20] = DTT source Sigma (powder), Freeze/Thaw no
[21] = DTT source Sigma (powder), Freeze/Thaw yes
[22] = Incubation condition: 5% CO^2 (37° C.)
[23] = Incubation condition: Ambient air (30° C.)
[24] = Incubation condition: Ambient air (37° C.)
[25] = horse serum/DTT method, reference value for the modifications tested
[26] = panels stored at −80° C. for 1 day
[27] = panels stored at −80° C. for 3 days
[28] = panels stored at −80° C. for 7 days
[29] = panels stored at −80° C. for 14 days
[30] = panels stored at −80° C. for 60 days
[31] = panels stored at −80° C. for 90 days
[32] = panels stored at −80° C. for 120 days
[33] = panels stored at −80° C. for 180 days
[34] = panels stored at −80° C. for 365 days
[35] = 100% Human Serum, Fresh dilutions
[36] = CAMHB, 0.5 mM DTT, Fresh dilutions
[37] = CAMHB, 25% horse serum, 0.5 mM DTT, Fresh dilutions
[38] = CAMHB, 25% horse serum, 0.5 mM DTT, Thawed
[39] = CAMHB, 25% horse serum, Fresh dilutions

B1: CF-301: bacteriophage lysin polypeptide derived from a Streptococcus suis prophage, amino acid sequence of FIG. 1 / SEQ ID NO: 1; 26 kDa bacteriolytic enzyme (protein, listed as Streptococcus suis)
chain: MTTVNEALNNVRAQVGSGVSVGNGECYALASWYERMISPDATVGLGAGVGWVSGAIGDTISAKNIGSSYNWQANGWTVSTSGPFKAGQIVTLGATPGNPYGHVVIVEAVDGDRLTILEQNYGGKRYPVRNYYSAASYRQQVVHYITPPGTVAQSAPNLAGSRSYRETGTMTVTVDALNVRRAPNTSGEIVAVYKRGESFDYDTVIIDVNGYVWVSYIGGSGKRNYVATGATKDGKRFGNAWGTFK
[1]
  MIC90: 8 µg/mL
  MIC range: 1 to 16 µg/mL
25 S. aureus strains; [4]
  MIC50: 0.5 µg/mL
  MIC90: 1 µg/mL
  Range: 0.25 to 1 µg/mL
25 S. aureus strains; [5]
  MIC50: 0.5 µg/mL
  MIC90: 1 µg/mL
  Range: 0.25 to 2 µg/mL
25 S. aureus strains; [6]
  MIC50: 0.5 µg/mL
  MIC90: 1 µg/mL
  Range: 0.25 to 2 µg/mL
25 S. aureus strains; [7]
  MIC50: 0.5 µg/mL
  MIC90: 1 µg/mL
  Range: 0.25 to 1 µg/mL
25 S. aureus strains; [8]
  MIC50: 0.5 µg/mL
  MIC90: 1 µg/mL
  Range: 0.25 to 2 µg/mL
25 S. aureus strains; [9]
  MIC50: 0.5 µg/mL
  MIC90: 1 µg/mL
  Range: 0.25 to 2 µg/mL
25 S. aureus strains; [10]
  MIC50: 0.5 µg/mL
  MIC90: 1 µg/mL
  Range: 0.25 to 1 µg/mL
25 S. aureus strains; [11]
  MIC50: 0.5 µg/mL
  MIC90: 1 µg/mL
  Range: 0.25 to 1 µg/mL
25 S. aureus strains; [12]
  MIC50: 1 µg/mL
  MIC90: 2 µg/mL
  Range: 0.5 to 2 µg/mL
25 S. aureus strains; [13]
  MIC50: 1 µg/mL
  MIC90: 2 µg/mL
  Range: 0.5 to 2 µg/mL
25 S. aureus strains; [14]
  MIC50: 0.5 µg/mL
  MIC90: 1 µg/mL
  Range: 0.25 to 1 µg/mL
25 S. aureus strains; [15]
  MIC50: 0.5 µg/mL
  MIC90: 1 µg/mL
  Range: 0.25 to 1 µg/mL
25 S. aureus strains; [16]
  MIC: 1 µg/mL
  MIC50: 0.5 µg/mL
  Range: 0.25 to 2 µg/mL
25 S. aureus strains; [17]
  MIC: 1 µg/mL
  MIC50: 0.5 µg/mL
  Range: 0.25 to 2 µg/mL
25 S. aureus strains; [18]
  MIC: 1 µg/mL
  MIC50: 0.5 µg/mL
  Range: 0.25 to 2 µg/mL
25 S. aureus strains; [19]
  MIC: 1 µg/mL
  MIC50: 0.5 µg/mL
  Range: 0.25 to 2 µg/mL
25 S. aureus strains; [20]
  MIC: 1 µg/mL
  MIC50: 0.5 µg/mL
  Range: 0.25 to 2 µg/mL
25 S. aureus strains; [21]
  MIC: 1 µg/mL
  MIC50: 0.5 µg/mL
  Range: 0.25 to 2 µg/mL
25 S. aureus strains; Final pH: Adjusted to pH 7.0
  MIC50: 0.5 µg/mL
  MIC90: 1 µg/mL
  Range: 0.25 to 2 µg/mL
25 S. aureus strains; Final pH: Adjusted to pH 8.0
  MIC50: 1 µg/mL
  MIC90: 1 µg/mL
  Range: 0.25 to 2 µg/mL
25 S. aureus strains; Final pH: Unadjusted (pH 7.4)
  MIC50: 0.5 µg/mL
  MIC90: 1 µg/mL
  Range: 0.25 to 2 µg/mL
25 S. aureus strains; [22]
  MIC50: 0.5 µg/mL
  MIC90: 1 µg/mL
  Range: 0.25 to 2 µg/mL
25 S. aureus strains; [23]
  MIC50: 0.5 µg/mL
  MIC90: 1 µg/mL
  Range: 0.25 to 1 µg/mL
25 S. aureus strains; [24]
  MIC50: 0.5 µg/mL
  MIC90: 1 µg/mL
  Range: 0.25 to 2 µg/mL
25 S. aureus strains; assayed up to 365 days
  effect of prolonged incubation of panels at −80° C. on MIC: no significant effect
25 S. aureus strains; [25]
  MIC50: 0.5 µg/mL
  MIC90: 1 µg/mL
  MIC range: 0.25 to 2 µg/mL
25 S. aureus strains; [26]
  MIC^50: 0.5
  MIC^90: 0.5
  Range: 0.25-1
25 S. aureus strains; [27]
  MIC^50: 0.5
  MIC^90: 1
  Range: 0.25-2
25 S. aureus strains; [28]
  MIC^50: 0.5
  MIC^90: 0.5
  Range: 0.25-1
25 S. aureus strains; [29]
  MIC^50: 0.5
  MIC^90: 1
  Range: 0.25-2
25 S. aureus strains; [30]
  MIC^50: 0.5
  MIC^90: 0.5
  Range: 0.25-2
25 S. aureus strains; [31]
  MIC^50: 0.5
  MIC^90: 1
  Range: 0.25-2
25 S. aureus strains; [32]
  MIC^50: 0.5
  MIC^90: 1
  Range: 0.25-2
25 S. aureus strains; [33]
  MIC^50: 0.5
  MIC^90: 0.5
  Range: 0.25-1
25 S. aureus strains; [34]
  MIC^50: 0.5
  MIC^90: 0.5
  Range: 0.25-2
S. aureus ATCC 700699; human blood
  MIC: 1 µg/mL
S. aureus ATCC 700699; standard conditions, CA-MHB / MHBII
  MIC: 64 µg/mL
Charge (pI)
  pI: 9.2
S. aureus strains; CA-MHB
  MIC90: 64 µg/mL
S. aureus strains; broth microdilution (BMD)
  S. aureus strains showing trailing (or Eagle) effect: ~70%
S. aureus strains; human blood/serum/plasma
  MIC90: 1 µg/mL
30 S. aureus strains; [35]
  Range: 0.125-2
  Trailing: none
30 S. aureus strains; [36]
  MIC50: 128
  MIC90: 128
  Range: 8-256
  Trailing: strong
30 S. aureus strains; CAMHB, 0.5 mM DTT, Thawed
  MIC50: 128
  MIC90: 256
  Trailing: strong
30 S. aureus strains; [37]
  MIC50: 0.5
  MIC90: 1
  Range: 0.25-2
  Trailing: none
30 S. aureus strains; [38]
  MIC50: 0.5
  MIC90: 1
  Range: 0.25-2
  Trailing: none
30 S. aureus strains; [39]
  Range: 0.5-4
  Trailing: none
30 S. aureus strains; CAMHB, 25% horse serum, Thawed
  Range: 0.5-8
  Trailing: none
30 S. aureus strains; CAMHB, Fresh dilutions
  Range: 2-128
  Trailing: strong
30 S. aureus strains; CAMHB, Thawed (frozen-thawed dilution panels)
  Trailing: strong
[2]
  pH range of activity: 6-9.7 pH
  temperature range of activity: 16-55 °C
[3]
  half-life in MHB: ~5 h
